The source of these data is US20250129155A1 (INNOBATION BIO, published 2025).

For test [1], the target named is CD47 on CD47-overexpressing breast cancer cell line MCF-7 (UniProt Q08722). In words: flow cytometry on MCF-7 cells, PE anti-human CD47, 5 µl. On the technique in general: In flow cytometry, cells or beads pass a laser one at a time.
For test [2] the target is unchanged. In words: flow cytometry on MCF-7 cells, secondary antibody alone (background control).
Test [3] addresses T1, CD47 protein (Acrobiosystems, cat #CD7-HA2E9) (UniProt Q08722 19-139).
T1 construct: Bought recombinant protein coated on the ELISA plate at 100 ng/well; also called CD47 antigen; CD47 peptide
Description: ELISA, CD47 protein coated 100 ng/well, 0.8 µg antibody per well. As for the experimental part: The purified 0.8 μg humanized antibody was treated in each well, and then reacted at room temperature for 2 hours, and then washed 3 times with 1×PBST. Secondary antibody ([…], 1:5,000) was treated and reacted at room temperature for 30 minutes, washed 3 times with 1×PBST, and then treated with TMB for color development and reacted at room temperature for 5 minutes. Finally, the reaction was terminated by treatment with a stop solution of 1 N H₂SO₄, and then the absorbance was measured at 450 nm.

Positions count from the first letter of the chain named.

T1 sequence (Q08722 19-139 limits assumed): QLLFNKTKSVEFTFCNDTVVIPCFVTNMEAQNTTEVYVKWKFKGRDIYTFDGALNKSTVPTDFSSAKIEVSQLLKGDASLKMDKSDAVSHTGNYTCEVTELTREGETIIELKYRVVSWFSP
CD47 on CD47-overexpressing breast cancer cell line MCF-7, sequence (Q08722 19-323 limits assumed): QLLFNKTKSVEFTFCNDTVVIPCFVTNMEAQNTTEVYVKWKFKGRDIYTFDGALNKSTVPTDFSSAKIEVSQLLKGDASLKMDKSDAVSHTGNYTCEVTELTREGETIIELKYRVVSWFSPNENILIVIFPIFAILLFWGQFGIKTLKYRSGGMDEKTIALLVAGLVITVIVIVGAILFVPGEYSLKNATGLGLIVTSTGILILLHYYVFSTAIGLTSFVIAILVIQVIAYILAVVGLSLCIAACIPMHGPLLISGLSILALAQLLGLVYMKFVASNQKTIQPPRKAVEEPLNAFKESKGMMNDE

In test [1], “CD47 antibody (Biolegend PE anti-human CD47, cat #323108)” gave a Mean of 11900 and a Median of 11000.

In test [2], “PE-conjugated goat anti-mouse IgG antibody (Biolegend Inc., cat #405307)” gave a Mean of 80 and a Median of 73.9.

B1: Hu3A5(V1) antibody (antibody, V domains shown)
VH: EVQLVQSGAEVKKPGASVKVSCKASGYTFTSYWMHWMRQAPGQGLEWIGVIDPSDSYTSYNQKFQGRVTLTVDTSTSTAYMELSSLRSEDTAVYYCARGGKRAMDYWGQGTTVTVSS
VL: DVVMTQSPLSLPVTLGQPASISCRSSQSLVHSNGNTYLHWFQQRPGQSPRLLIYKVSNRFSGVPDRFSGSGSGTDFTLKISRVEAEDVGVYFCSQSTHVPFTFGGGTKLEIK
Regarding B1, the OD450 measurements in test [3] is 2.58 OD450.

B2: Hu3A5 (V3) antibody (antibody, V domains shown)
VH: B1 VH
VL: DVVMTQSPDSLAVSLGERATINCKSSQSLVHSNGNTYLHWYQQKPGQPPKLLIYKVSNRFSGVPDRFSGSGSGTDFTLTISSLQAEDVAVYFCSQSTHVPFTFGGGTKLEIK
On to B2, for which the OD450 measurements in test [3] stood at 2.54 OD450.

B3: Hu3A5 (V9) antibody (antibody, V domains shown)
VH: EVQLVQSGSELKKPGASVKVSCKASGYTFTSYWMHWMRQAPGQGLEWIGVIDPSDSYTSYNQGFTGRFVLSVDTSVSTAYLQISSLKAEDTAVYYCARGGKRAMDYWGQGTTVTVSS
VL: B1 VL
With B3, in test [3], the OD450 measurements worked out at 2.65 OD450.

B4: Hu3A5 (V7) antibody (antibody, V domains shown)
VH: B1 VH with E1Q, M37V, I48M, L70M
VL: B2 VL
The molecule B4 showed an OD450 measurements in test [3] of 2.67 OD450.

B5: Hu3A5(V13) antibody (antibody, V domains shown)
VH: B3 VH with E1Q, H35N, M37V, I48M, L70F
VL: B1 VL
In test [3], B5 had an OD450 measurements of 0.0966 OD450.

B6: Hu3A5 (V5) antibody (antibody, V domains shown)
VH: B1 VH with E1Q, M37V, I48M, L70M
VL: B1 VL
B6 yielded an OD450 measurements in test [3] of 2.57 OD450.

B7: Hu3A5 (V8) antibody (antibody, V domains shown)
VH: B1 VH with E1Q, M37V, I48M, L70M
VL: B2 VL with F92Y
B7 returned an OD450 measurements in test [3] of 2.45 OD450.

B8: Hu3A5(V10) antibody (antibody, V domains shown)
VH: B3 VH
VL: B1 VL with F92Y
notes: also called humanized 3A5(V10) antibody; humanized Hu3A5(V10) antibody
In the case of B8, the OD450 measurements in test [3] is 2.81 OD450.

B9: Hu3A5 (V2) antibody (antibody, V domains shown)
VH: B1 VH
VL: B1 VL with F92Y
Turning to B9, the OD450 measurements in test [3] was 2.69 OD450.

B10: Hu3A5(V14) antibody (antibody, V domains shown)
VH: B3 VH with E1Q, H35N, M37V, I48M, L70F
VL: B1 VL with F92Y
For B10, in test [3], the OD450 measurements is 0.147 OD450.

B11: Hu3A5 (V6) antibody (antibody, V domains shown)
VH: B1 VH with E1Q, M37V, I48M, L70M
VL: B1 VL with F92Y
As to B11, in test [3], the OD450 measurements is 2.62 OD450.

B12: Hu3A5 (V4) antibody (antibody, V domains shown)
VH: B1 VH
VL: B2 VL with F92Y
As for B12, the OD450 measurements in test [3] was 2.74 OD450.

B13: Hu3A5(V11) antibody (antibody, V domains shown)
VH: B3 VH
VL: B2 VL
For B13, the OD450 measurements in test [3] stood at 2.81 OD450.

B14: Hu3A5(V16) antibody (antibody, V domains shown)
VH: B3 VH with E1Q, H35N, M37V, I48M, L70F
VL: B2 VL with F92Y
In test [3], B14 gave an OD450 measurements of 0.106 OD450.

B15: Hu3A5(V12) antibody (antibody, V domains shown)
VH: B3 VH
VL: B2 VL with F92Y
B15 had an OD450 measurements in test [3] of 2.85 OD450.

B16: Hu3A5(V15) antibody (antibody, V domains shown)
VH: B3 VH with E1Q, H35N, M37V, I48M, L70F
VL: B2 VL
For the molecule B16, in test [3], the OD450 measurements amounted to 0.111 OD450.
